# Reference: patent publication US20050266465A1 (MAXYGEN, published 2005)
# Numbering of substitutions follows the chain as printed.
# T1: interferon-alpha receptor (type I interferon receptor comprising receptor subunits IFNAR-2 and IFNAR-1) (human, UniProt P17181 28-557; P48551 27-515)
# T1 sequence (looked up) 1: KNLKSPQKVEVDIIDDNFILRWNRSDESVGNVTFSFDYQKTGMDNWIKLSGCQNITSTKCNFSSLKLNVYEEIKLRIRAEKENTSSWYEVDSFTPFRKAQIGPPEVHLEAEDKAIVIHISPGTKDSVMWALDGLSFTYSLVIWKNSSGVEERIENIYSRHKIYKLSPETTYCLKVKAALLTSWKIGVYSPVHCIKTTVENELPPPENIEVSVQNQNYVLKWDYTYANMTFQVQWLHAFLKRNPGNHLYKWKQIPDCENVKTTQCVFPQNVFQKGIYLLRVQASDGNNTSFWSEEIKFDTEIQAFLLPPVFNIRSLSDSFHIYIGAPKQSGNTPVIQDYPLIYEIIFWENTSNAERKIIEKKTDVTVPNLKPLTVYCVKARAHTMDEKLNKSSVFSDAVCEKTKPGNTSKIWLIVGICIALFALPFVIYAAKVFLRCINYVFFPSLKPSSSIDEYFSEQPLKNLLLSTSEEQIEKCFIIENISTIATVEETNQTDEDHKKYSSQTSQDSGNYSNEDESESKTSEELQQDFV
# T1 sequence (looked up) 2: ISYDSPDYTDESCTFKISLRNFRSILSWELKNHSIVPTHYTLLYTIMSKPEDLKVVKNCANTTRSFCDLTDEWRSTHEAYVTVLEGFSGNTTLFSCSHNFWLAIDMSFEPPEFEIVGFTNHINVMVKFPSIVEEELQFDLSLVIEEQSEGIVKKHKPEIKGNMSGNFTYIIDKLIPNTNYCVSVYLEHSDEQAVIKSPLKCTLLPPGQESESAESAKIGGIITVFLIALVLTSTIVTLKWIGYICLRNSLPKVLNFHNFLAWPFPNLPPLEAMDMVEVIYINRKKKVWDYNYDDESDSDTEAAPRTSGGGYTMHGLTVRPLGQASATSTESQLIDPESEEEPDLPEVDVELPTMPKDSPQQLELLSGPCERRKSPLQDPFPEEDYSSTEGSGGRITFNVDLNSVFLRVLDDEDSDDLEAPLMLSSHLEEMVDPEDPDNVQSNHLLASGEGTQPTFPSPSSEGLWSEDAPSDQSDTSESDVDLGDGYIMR
# B1: 25epi19 (ligand)
# chain: CDLPQTHSLSNRRTLMLMAQMRRISPFSCLKDRHDFGFPEEEFDGHQAQKVQAIFLLYELIQQTFNLFSTKDSSAAWDETLLEKFYIELFQQMNNLEACVIQEVGVEEIALMNVDSILAVRKYFRRITLYLTEKKYSPCAWEVVRAEIMRSFSFSTNLQESLRSKE
# B2: B9x14EC4 (ligand)
# chain: CDLPQTHSLGHRRTMMLLAQMRRISLFSCLKDRHDFRFPQEEFDGNHFQKVQAIFLFYEMMQQTFNLFSTKDSSAAWDETLLEKFYIELFQQMNDLEACVMQEVGVEETPLMNVDSILAVRKYFQRITLYLTEKKYSPCAWEVVRAEIMRSFSFSTNLQESLRSKE
# B3: 14epi32 (ligand)
# chain: B2 chain with F48L, Q52P, F55S, N113K, V114E
# B4: 14epi18 (ligand)
# chain: B2 chain with F48A
# B5: 14epi29 (ligand)
# chain: B2 chain with F48A, F55S, F65A
# B6: 14epi16 (ligand)
# chain: B2 chain with F48L, F55A
# B7: 14epi33 (ligand)
# chain: B2 chain with Q52P, F55S, N113K, V114E
# B8: 14epi17 (ligand)
# chain: B2 chain with F48L, F55S
# B9: 14epi22 (ligand)
# chain: B2 chain with F55S
# B10: 14epi19 (ligand)
# chain: B2 chain with F48A, F55A
# B11: 14epi15 (ligand)
# chain: B2 chain with F48L
# B12: 14epi25 (ligand)
# chain: B2 chain with F48L, F55S, L111A
# B13: 14epi26 (ligand)
# chain: B2 chain with F48L, F55S, N113K, V114E
# B14: 14epi21 (ligand)
# chain: B2 chain with F55A
# B15: 14epi31 (ligand)
# chain: B2 chain with F48A, F55A, N113K, V114E
# B16: 14epi20 (ligand)
# chain: B2 chain with F48A, F55S
# B17: 14epi34 (ligand)
# chain: B2 chain with Q52P, F55S, V114E
# B18: MonoPEGylated 14epi18 (ligand)
# chain: MCDLPQTHSLGHRRTMMLLAQMRRISLFSCLKDRHDFRFPQEEFDGNHAQKVQAIFLFYEMMQQTFNLFSTKDSSAAWDETLLEKFYIELFQQMNDLEACVMQEVGVEETPLMNVDSILAVRKYFQRITLYLTEKKYSPCAWEVVRAEIMRSFSFSTNLQESLRSKE
# modifications: single 40 kDa branched PEG (mPEG2-NHS) on a lysine; positional isomers predominantly monoPEGylated at Lys122 and Lys135
# B19: MonoPEGylated 25epi19 (ligand)
# chain: MCDLPQTHSLSNRRTLMLMAQMRRISPFSCLKDRHDFGFPEEEFDGHQAQKVQAIFLLYELIQQTFNLFSTKDSSAAWDETLLEKFYIELFQQMNNLEACVIQEVGVEEIALMNVDSILAVRKYFRRITLYLTEKKYSPCAWEVVRAEIMRSFSFSTNLQESLRSKE
# modifications: single 40 kDa branched PEG (mPEG2-NHS) on a lysine; positional isomers predominantly monoPEGylated at Lys31, Lys122 and Lys135
# Target: T1, interferon-alpha receptor (type I …)
# Assay: cell-based or functional assay
Binder,HeLa/EMCV Antiviral activity relative to huIFN-alpha 2b,HuH7/EMCV Antiviral activity relative to huIFN-alpha 2b
B1,> 8 fold,> 8 fold
B2,> 8 fold,> 8 fold
B3,> 8 fold,> 8 fold
B4,> 8 fold,> 8 fold
B5,> 8 fold,–
B6,> 8 fold,> 8 fold
B7,> 8 fold,> 8 fold
B8,> 8 fold,> 8 fold
B9,> 8 fold,–
B10,> 8 fold,> 8 fold
B11,> 8 fold,> 8 fold
B12,> 8 fold,> 8 fold
B13,> 8 fold,–
B14,> 8 fold,> 8 fold
B15,> 8 fold,–
B16,> 8 fold,> 8 fold
B17,> 8 fold,> 8 fold

# Target: T1, interferon-alpha receptor (type I …)
# Assay: cell-based or functional assay
# Remark: another data set of the same source
row,Binder,"TH1 activity (IFN-gamma in supernatants of naive T cells), Fold over IFN-alpha 2a"
1,B1,> 30 fold
2,B4,> 30 fold

# Target: T1, interferon-alpha receptor (type I …)
# Assay: cell-based or functional assay
# Remark: another data set of the same source
row,Binder,"HeLa-EMCV antiviral assay, antiviral activity relative to monoPEGylated IFN-alpha 2a"
1,B18,> 10 fold
2,B19,> 10 fold
